{
  "source": "paper PMC5586342",
  "about": "“Mouse glutamate carboxypeptidase II (GCPII) has a similar enzyme activity and inhibition profile but a different tissue distribution to human GCPII” (FEBS Open Bio, 2017)",
  "molecules": {"B1": {"name": "Avi-mGCPII (recombinant extracellular mouse GCPII) (Mus musculus) (protein)", "chain": "KPSNEATGNVSHSGMKKEFLHELKAENIKKFLYNFTRTPHLAGTQNNFELAKQIHDQWKEFGLDLVELSHYDVLLSYPNKTHPNYISIINEDGNEIFKTSLSEQPPPGYENISDVVPPYSAFSPQGTPEGDLVYVNYARTEDFFKLEREMKISCSGKIVIARYGKVFRGNMVKNAQLAGAKGMILYSDPADYFVPAVKSYPDGWNLPGGGVQRGNVLNLNGAGDPLTPGYPANEHAYRHELTNAVGLPSIPVHPIGYDDAQKLLEHMGGPAPPDSSWKGGLKVPYNVGPGFAGNFSTQKVKMHIHSYTKVTRIYNVIGTLKGALEPDRYVILGGHRDAWVFGGIDPQSGAAVVHEIVRSFGTLKKKGRRPRRTILFASWDAEEFGLLGSTEWAEEHSRLLQERGVAYINADSSIEGNYTLRVDCTPLMYSLVYNLTKELQSPDEGFEGKSLYDSWKEKSPSPEFIGMPRISKLGSGNDFEVFFQRLGIASGRARYTKNWKTNKVSSYPLYHSVYETYELVVKFYDPTFKYHLTVAQVRGAMVFELANSIVLPFDCQSYAVALKKYADTIYNISMKHPQEMKAYMISFDSLFSAVNNFTDVASKFNQRLQELDKSNPILLRIMNDQLMYLERAFIDPLGLPGRPFYRHIIYAPSSHNKYAGESFPGIYDALFDISSKVNASKAWNEVKRQISIATFTVQAAAETLREVA", "notes": "extracellular domain (45-752), N-terminal biotinylated Avi-tag with TEV site, secreted from Drosophila S2 cells, streptavidin mutein purification"}},
  "key": {"[1]": {"target": "T1, Avi-mGCPII (recombinant extracellular mouse GCPII) (Mus musculus, UniProt O35409)", "T1 construct": "gene Folh1; extracellular domain (45-752), N-terminal biotinylated Avi-tag with TEV site, secreted from Drosophila S2 cells, streptavidin mutein purification", "assay": "HPLC assay of pteroyl-di-L-glutamate cleavage", "assay_type": "biochemical", "settings": "for Ki: read-out: K i (Avi-mGCPII)", "source_text": "HPLC assay of pteroyl-di-L-glutamate cleavage on Avi-mGCPII (recombinant extracellular mouse GCPII)"}, "[2]": {"target": "T2, Avi-hGCPII (recombinant extracellular human GCPII) (Homo sapiens, UniProt Q04609)", "T2 construct": "gene FOLH1", "T2 sequence (Q04609 44-750 limits assumed)": "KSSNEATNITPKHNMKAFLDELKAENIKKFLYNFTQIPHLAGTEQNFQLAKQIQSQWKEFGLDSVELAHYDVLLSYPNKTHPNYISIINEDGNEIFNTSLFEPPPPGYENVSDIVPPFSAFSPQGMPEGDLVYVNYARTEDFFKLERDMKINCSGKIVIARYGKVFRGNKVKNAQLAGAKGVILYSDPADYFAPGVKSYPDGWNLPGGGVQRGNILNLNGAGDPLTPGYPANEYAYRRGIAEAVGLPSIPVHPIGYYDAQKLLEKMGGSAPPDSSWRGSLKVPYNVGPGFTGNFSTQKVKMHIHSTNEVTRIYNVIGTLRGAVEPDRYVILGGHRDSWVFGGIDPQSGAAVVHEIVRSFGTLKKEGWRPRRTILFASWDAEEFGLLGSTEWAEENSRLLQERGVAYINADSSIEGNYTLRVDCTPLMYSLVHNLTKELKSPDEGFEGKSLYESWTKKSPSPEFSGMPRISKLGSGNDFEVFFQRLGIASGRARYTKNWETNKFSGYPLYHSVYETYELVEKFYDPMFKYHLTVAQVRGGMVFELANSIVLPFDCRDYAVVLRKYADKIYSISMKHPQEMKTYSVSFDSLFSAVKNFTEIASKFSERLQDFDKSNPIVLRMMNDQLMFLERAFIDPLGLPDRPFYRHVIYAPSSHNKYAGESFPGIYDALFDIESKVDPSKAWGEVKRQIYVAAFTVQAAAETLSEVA", "assay": "HPLC assay of pteroyl-di-L-glutamate cleavage", "assay_type": "biochemical", "settings": "for Ki: read-out: K i (Avi-hGCPII)", "source_text": "HPLC assay of pteroyl-di-L-glutamate cleavage on Avi-hGCPII (recombinant extracellular human GCPII)"}, "[3]": {"test_system": "CC(=O)N[C@@H](CC(=O)O)C(=O)N[C@@H](CCC(=O)O)C(=O)O", "assay": "radioenzymatic assay", "assay_type": "biochemical, Homo sapiens", "settings": "[…] Bis-Tris propane, […] NaCl, pH […]", "source_text": "radioenzymatic assay on Avi-hGCPII (recombinant extracellular human GCPII)"}, "HPLC assay": {"substrate": "Nc1nc2ncc(CNc3ccc(C(=O)N[C@@H](CCC(=O)N[C@@H](CCC(=O)O)C(=O)O)C(=O)O)cc3)nc2c(=O)[nH]1", "assay": "HPLC assay", "assay_type": "biochemical, Mus musculus", "settings": "[…] Bis-Tris propane, […] NaCl, pH […]", "source_text": "HPLC assay on Avi-mGCPII (recombinant extracellular mouse GCPII)"}, "radioenzymatic assay": {"substrate": "CC(=O)N[C@@H](CC(=O)O)C(=O)N[C@@H](CCC(=O)O)C(=O)O", "assay": "radioenzymatic assay", "assay_type": "biochemical, Mus musculus", "settings": "[…] Bis-Tris propane, […] NaCl, pH […]", "source_text": "radioenzymatic assay on Avi-mGCPII (recombinant extracellular mouse GCPII)"}, "[4]": {"settings": "substrate pteroyl-di-L-glutamate ([…] final), […] Bis-Tris propane, […] NaCl, pH […] °C"}},
  "note": "Like-named read-outs stand apart in the source and are kept apart here.",
  "data": [
    {"molecule": "O=C(O)CC[C@H](NC(=O)C(O)(CC(=O)O)CC(=O)O)C(=O)O", "note": "[β-citryl-L-glutamate]", "values": [
      {"measurement": "K i (Avi-mGCPII) (nM)", "setting": "[1]; [4]", "value": "24 000 ± 3000 nM"},
      {"measurement": "K i (Avi-hGCPII) (nM)", "setting": "[2]; [4]", "value": "16 000 ± 5000 nM"}
    ]},
    {"molecule": "O=C(O)CCC(CP(=O)(O)O)C(=O)O", "note": "(centres unmarked) [2-PMPA, 2‐(phosphonomethyl)pentanedioic acid]", "values": [
      {"measurement": "Ki", "setting": "[1]; [4]", "value": "0.56 ± 0.05", "unit": "nM"}
    ]},
    {"molecule": "O=C(O)CCc1ccc(O)c(CN(CCN(CC(=O)O)Cc2cc(CCC(=O)NCCCCCC(=O)NCCCC[C@H](NC(=O)N[C@@H](CCC(=O)O)C(=O)O)C(=O)O)ccc2O)CC(=O)O)c1", "note": "[DKFZ-PSMA-11]", "values": [
      {"measurement": "Ki", "setting": "[1]", "value": "0.1 ± 0.01", "unit": "nM"},
      {"measurement": "Ki", "setting": "[2]; [4]", "value": "0.018 ± 0.002", "unit": "nM"}
    ]},
    {"molecule": "Avi-hGCPII (recombinant extracellular human GCPII) (Homo sapiens)", "values": [
      {"measurement": "Km", "setting": "[3]", "value": "0.55 ± 0.06", "unit": "µM"},
      {"measurement": "kcat", "setting": "[3]", "value": "1.45 ± 0.04", "unit": "s⁻¹"},
      {"measurement": "kcat/Km", "setting": "[3]", "value": "2.65e+06 ± 70000", "unit": "M⁻¹ s⁻¹"}
    ]},
    {"molecule": "CC(C)C[C@H](NC(=O)N[C@@H](CCC(=O)O)C(=O)O)C(=O)O", "note": "[ZJ-43, (S)‐2‐(3‐((S)‐1‐carboxy‐3‐methylbutyl)ureido)pentanedioic acid]", "values": [
      {"measurement": "Ki", "setting": "[1]", "value": "5.9 ± 0.9", "unit": "nM"}
    ]},
    {"molecule": "N[C@@H](Cn1oc(=O)[nH]c1=O)C(=O)O", "note": "[Quisqualate]", "values": [
      {"measurement": "Ki", "setting": "[1]", "value": "580 ± 60", "unit": "nM"},
      {"measurement": "Ki", "setting": "[2]", "value": "520 ± 80", "unit": "nM"}
    ]},
    {"molecule": "B1", "values": [
      {"measurement": "Km", "setting": "HPLC assay", "value": "0.29 ± 0.02", "unit": "µM"},
      {"measurement": "kcat", "setting": "HPLC assay", "value": "3.63 ± 0.09", "unit": "s⁻¹"},
      {"measurement": "kcat/Km", "setting": "HPLC assay", "value": "1.26e+07 ± 800000", "unit": "M⁻¹ s⁻¹"},
      {"measurement": "Km", "setting": "radioenzymatic assay", "value": "1.9 ± 0.1", "unit": "µM"},
      {"measurement": "kcat", "setting": "radioenzymatic assay", "value": "1.44 ± 0.02", "unit": "s⁻¹"},
      {"measurement": "kcat/Km", "setting": "radioenzymatic assay", "value": "770000 ± 10000", "unit": "M⁻¹ s⁻¹"}
    ]}
  ]
}
